Measured values from patent publication US20060286568A1.

Tests used:
eGFP-EAAT4 = assay: cell-based or functional assay
eGFP-EAAT3 = assay: cell-based or functional assay

myc-tagged mutant β-III spectrin with the 39 bp American SCA5 deletion (SP-Δ39; p.E532_M544del) (from UniProt O15020 2-2390)
% of diffraction spots not moving (TIRF microscopy, HEK293 cells) (eGFP-EAAT4): 67.5%

myc-tagged wildtype β-III spectrin (SP-WT) (from UniProt O15020 2-2390)
% of diffraction spots not moving (TIRF microscopy, HEK293 cells) (eGFP-EAAT4): 94.2%
diffraction spots moving at or near the membrane (TIRF microscopy, HEK293 cells) (eGFP-EAAT4): 5%
% of diffraction spots not moving (TIRF microscopy, HEK293 cells) (eGFP-EAAT3): 58.7%
